These results are taken from patent US20110008345A1 (GlaxoSmithKline, published 2011).

“And” between values parts separate entries of the source, which are not always exact repeats. Equal entries are not always repeated.

Test [1] addresses T1, recombinant E. coli-expressed human IL-13 (human, UniProt P35225 35-146).
T1 construct: made and purified at GSK; also called Interleukin-13; rhIL-13
Description: SPR. A general note: SPR reads the build-up and loss of mass on a sensor chip optically.

Another test deals with T2, recombinant human VEGF (human, UniProt P15692-4 27-191).
T2 construct: also called VEGF165; hVEGF165
As to the kind of experiment: ELISA. On the technique in general: In an ELISA, binding on a coated surface is turned into a signal by an enzyme label.

Test [2] addresses T3, recombinant E. coli-expressed human IL-4 (human, UniProt P05112 25-153).
T3 construct: made and purified at GSK; also called Interleukin-4; rhIL-4
T3 sequence: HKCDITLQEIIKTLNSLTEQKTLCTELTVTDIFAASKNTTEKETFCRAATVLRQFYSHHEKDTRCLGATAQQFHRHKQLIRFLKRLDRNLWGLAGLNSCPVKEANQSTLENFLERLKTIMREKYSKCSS
Description: ELISA, IL-4 binding to IL4Ralpha-Fc.

In test [3] the target is T1, recombinant E. coli-expressed human …. As to the kind of experiment: SPR. The source holds these as a separate data set.
The target in test [4] is T3, recombinant E. coli-expressed human IL-4. As to the kind of experiment: ELISA.
For test [5] the target is unchanged. Description: SPR stoichiometry.
The target in test [6] is T1, recombinant E. coli-expressed human …. As to the kind of experiment: SPR stoichiometry.
The target is the same in test [7]. Description: SPR exp 2.
In test [8] the target is T3, recombinant E. coli-expressed human IL-4. As to the kind of experiment: SPR exp 2.
For test [9] the target is unchanged. As to the kind of experiment: SPR, purified.
Test [10] concerns the target T1, recombinant E. coli-expressed human …. Description: SPR, purified.
Test [11] deals with T3, recombinant E. coli-expressed human IL-4. Description: SPR exp 1.
The target in test [12] is T1, recombinant E. coli-expressed human …. As to the kind of experiment: SPR exp 1.
In test [13] the target is T4, recombinant E. coli-expressed cynomolgus IL-4 (cynomolgus, UniProt P79339 25-153).
T4 construct: also called cyno IL-4
T4 sequence (looked up): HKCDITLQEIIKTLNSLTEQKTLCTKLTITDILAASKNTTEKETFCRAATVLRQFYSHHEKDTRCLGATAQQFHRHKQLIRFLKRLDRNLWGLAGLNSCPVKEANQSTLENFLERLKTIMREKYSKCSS
As to the kind of experiment: SPR.

Test [14] concerns the target T5, recombinant E. coli-expressed cynomolgus IL-13 (cynomolgus, UniProt Q0PW92 21-132).
T5 construct: also called cyno IL-13
Description: SPR.

B1: anti-CD20 mAb (antibody, human IgG1, kappa, V domains shown)
VH: QVQLQQPGAELVKPGASVKMSCKASGYTFTSYNMHWVKQTPGRGLEWIGAIYPGNGDTSYNQKFKGKATLTADKSSSTAYMQLSSLTSEDSAVYYCARSTYYGGDWYFNVWGAGTLVTVSS
VL: QIVLSQSPAILSASPGEKVTMTCRASSSVSYIHWFQQKPGSSPKPWIYATSNLASGVPVRFSGSGSGTSYSLTISRVEAEDAATYYCQQWTSNPPTFGGGTKLEIKR
notes: also called Rituxan; anti-CD20 control antibody
As for B1, the binding result in [1] is “no binding”.

B2: BPC1803 (bispecific antibody, human IgG1, kappa)
heavy: not shown
light: DIVMTQSPLSLPVTPGEPASISCRSSQSIVQSNGDTYLEWYLQKPGQSPQLLIYRVSNRFSGVPDRFSGSGSGTDFTLKISRVEAEDVGVYYCFQGSHVPYTFGQGTKLEIKRTVAAPSVFIFPPSDEQLKSGTASVVCLLNNFYPREAKVQWKVDNALQSGNSQESVTEQDSKDSTYSLSSTLTLSKADYEKHKVYACEVTHQGLSSPVTKSFNRGEC
notes: anti-VEGF tear lipocalin fusion; also called antiIGF1R Heavy Chain-GS-TLPC
As to B2, the binding result with recombinant human VEGF is recorded as “binds”.

B3: BPC1804 (bispecific antibody, human IgG1, kappa)
heavy: not shown
light: DIVMTQSPLSLPVTPGEPASISCRSSQSIVQSNGDTYLEWYLQKPGQSPQLLIYRVSNRFSGVPDRFSGSGSGTDFTLKISRVEAEDVGVYYCFQGSHVPYTFGQGTKLEIKRTVAAPSVFIFPPSDEQLKSGTASVVCLLNNFYPREAKVQWKVDNALQSGNSQESVTEQDSKDSTYSLSSTLTLSKADYEKHKVYACEVTHQGLSSPVTKSFNRGEC
notes: anti-VEGF tear lipocalin fusion
As for B3, in the test with recombinant human VEGF, the binding result was “binds”.

B4: 586H-210 (bispecific antibody, human IgG1, kappa)
heavy: not shown
light: DIVMTQSPLSLPVTPGEPASISCRSSQNIVHINGNTYLEWYLQKPGQSPRLLIYKISDRFSGVPDRFSGSGSGTDFTLKISRVEADDVGIYYCFQGSHVPWTFGQGTKLEIKRTVAAPSVFIFPPSDEQLKSGTASVVCLLNNFYPREAKVQWKVDNALQSGNSQESVTEQDSKDSTYSLSSTLTLSKADYEKHKVYACEVTHQGLSSPVTKSFNRGEC
In the case of B4, the IC50 in test [2] was found to be 26.8 nM. Further, the dissociation constant (Kd) in [3] was found to be 0.44 nM.

B5: 586H-ELQLE-210 (bispecific antibody, human IgG1, kappa)
heavy: not shown
light: DIVMTQSPLSLPVTPGEPASISCRSSQNIVHINGNTYLEWYLQKPGQSPRLLIYKISDRFSGVPDRFSGSGSGTDFTLKISRVEADDVGIYYCFQGSHVPWTFGQGTKLEIKRTVAAPSVFIFPPSDEQLKSGTASVVCLLNNFYPREAKVQWKVDNALQSGNSQESVTEQDSKDSTYSLSSTLTLSKADYEKHKVYACEVTHQGLSSPVTKSFNRGEC
In the case of B5, the binding result in [4] is “binds”. Also, the equilibrium dissociation constant (Kd) in [3] is 0.43 nM.

B6: 586H-G4S-210 (bispecific antibody, human IgG1, kappa)
heavy: not shown
light: DIVMTQSPLSLPVTPGEPASISCRSSQNIVHINGNTYLEWYLQKPGQSPRLLIYKISDRFSGVPDRFSGSGSGTDFTLKISRVEADDVGIYYCFQGSHVPWTFGQGTKLEIKRTVAAPSVFIFPPSDEQLKSGTASVVCLLNNFYPREAKVQWKVDNALQSGNSQESVTEQDSKDSTYSLSSTLTLSKADYEKHKVYACEVTHQGLSSPVTKSFNRGEC
On to B6, for which, in test [2], the IC50 was determined as 29.9 nM. Moreover, the equilibrium dissociation constant (Kd) in [3] turned out to be 0.42 nM.

B7: 586H-ASTKG-210 (bispecific antibody, human IgG1, kappa)
heavy: not shown
light: DIVMTQSPLSLPVTPGEPASISCRSSQNIVHINGNTYLEWYLQKPGQSPRLLIYKISDRFSGVPDRFSGSGSGTDFTLKISRVEADDVGIYYCFQGSHVPWTFGQGTKLEIKRTVAAPSVFIFPPSDEQLKSGTASVVCLLNNFYPREAKVQWKVDNALQSGNSQESVTEQDSKDSTYSLSSTLTLSKADYEKHKVYACEVTHQGLSSPVTKSFNRGEC
As to B7, in test [2], the half-maximal inhibitory concentration (IC50) was 27.3 nM. Further, the Kd in test [3] was 0.4 nM.

B8: 586H-EPKSC-210 (bispecific antibody, human IgG1, kappa)
heavy: not shown
light: DIVMTQSPLSLPVTPGEPASISCRSSQNIVHINGNTYLEWYLQKPGQSPRLLIYKISDRFSGVPDRFSGSGSGTDFTLKISRVEADDVGIYYCFQGSHVPWTFGQGTKLEIKRTVAAPSVFIFPPSDEQLKSGTASVVCLLNNFYPREAKVQWKVDNALQSGNSQESVTEQDSKDSTYSLSSTLTLSKADYEKHKVYACEVTHQGLSSPVTKSFNRGEC
On to B8, for which the binding result in [4] was “binds”. Further, the Kd in [3] worked out at 0.43 nM.

B9: PascoL-G4S-474 (bispecific antibody, human IgG1, kappa)
heavy: not shown
light: DIVLTQSPSSLSASVGDRVTITCKASQSVDYDGDSYMNWYQQKPGKAPKLLIYAASNLESGIPSRFSGSGSGTDFTFTISSLQPEDIATYYCQQSNEDPPTFGQGTKVEIKRTVAAPSVFIFPPSDEQLKSGTASVVCLLNNFYPREAKVQWKVDNALQSGNSQESVTEQDSKDSTYSLSSTLTLSKADYEKHKVYACEVTHQGLSSPVTKSFNRGECGGGGSGVQLLESGGGLVQPGGSLRLSCAASGFTFAWYDMGWVRQAPGKGLEWVSSIDWHGEVTYYADSVKGRFTISRDNSKNTLYLQMNSLRAEDTAVYYCATAEDEPGYDYWGQGTLVTVSS
In the case of B9, the Stoichiometry in test [5] and in test [6] was 1.8 throughout. Further, the Kd in test [7] was 0.756 nM and 0.621 nM; in [8], 0.063 nM and 0.052 nM; in test [9], 0.028 nM; in test [10], 1.2 nM. Also, the koff was 0.000425 s⁻¹ and 0.000347 s⁻¹ in [7]; 0.000135 s⁻¹ and 0.000111 s⁻¹ in test [8]. Moreover, the kon is 563000 M⁻¹ s⁻¹ and 559000 M⁻¹ s⁻¹ in [7]; 2.14e+06 M⁻¹ s⁻¹ and 2.13e+06 M⁻¹ s⁻¹ in [8].

B10: PascoHL-G4S-474 (bispecific antibody, human IgG1, kappa)
heavy: not shown
light: DIVLTQSPSSLSASVGDRVTITCKASQSVDYDGDSYMNWYQQKPGKAPKLLIYAASNLESGIPSRFSGSGSGTDFTFTISSLQPEDIATYYCQQSNEDPPTFGQGTKVEIKRTVAAPSVFIFPPSDEQLKSGTASVVCLLNNFYPREAKVQWKVDNALQSGNSQESVTEQDSKDSTYSLSSTLTLSKADYEKHKVYACEVTHQGLSSPVTKSFNRGECGGGGSGVQLLESGGGLVQPGGSLRLSCAASGFTFAWYDMGWVRQAPGKGLEWVSSIDWHGEVTYYADSVKGRFTISRDNSKNTLYLQMNSLRAEDTAVYYCATAEDEPGYDYWGQGTLVTVSS
With B10, the Stoichiometry in test [5] was found to be 1.7; in test [6], 3.5. The Kd in test [9] was determined as 0.035 nM; in test [10] it was 0.87 nM.

B11: PascoL-EPKSC-474 (bispecific antibody, human IgG1, kappa)
heavy: not shown
light: DIVLTQSPSSLSASVGDRVTITCKASQSVDYDGDSYMNWYQQKPGKAPKLLIYAASNLESGIPSRFSGSGSGTDFTFTISSLQPEDIATYYCQQSNEDPPTFGQGTKVEIKRTVAAPSVFIFPPSDEQLKSGTASVVCLLNNFYPREAKVQWKVDNALQSGNSQESVTEQDSKDSTYSLSSTLTLSKADYEKHKVYACEVTHQGLSSPVTKSFNRGECEPKSCDKTHTCPPCPGSGVQLLESGGGLVQPGGSLRLSCAASGFTFAWYDMGWVRQAPGKGLEWVSSIDWHGEVTYYADSVKGRFTISRDNSKNTLYLQMNSLRAEDTAVYYCATAEDEPGYDYWGQGTLVTVSS
B11: in test [7], the equilibrium dissociation constant (Kd) is 0.801 nM and 0.815 nM; the koff was 0.000334 s⁻¹ and 0.000286 s⁻¹; the on-rate (kon) was 417000 M⁻¹ s⁻¹ and 351000 M⁻¹ s⁻¹. Also, in [8], the Kd was 0.139 nM and 0.127 nM; the koff was 0.000258 s⁻¹ and 0.000318 s⁻¹; the kon is 1.86e+06 M⁻¹ s⁻¹ and 2.51e+06 M⁻¹ s⁻¹.

B12: PascoH-G4S-474 (bispecific antibody, human IgG1, kappa)
heavy: not shown
light: DIVLTQSPSSLSASVGDRVTITCKASQSVDYDGDSYMNWYQQKPGKAPKLLIYAASNLESGIPSRFSGSGSGTDFTFTISSLQPEDIATYYCQQSNEDPPTFGQGTKVEIKRTVAAPSVFIFPPSDEQLKSGTASVVCLLNNFYPREAKVQWKVDNALQSGNSQESVTEQDSKDSTYSLSSTLTLSKADYEKHKVYACEVTHQGLSSPVTKSFNRGEC
With B12, the Stoichiometry in test [5] is 1.8; in test [6], 1.9. Besides, the Kd in test [11] was 0.02 nM; in test [12], 0.67 nM; in test [9], 0.036 nM; in [10] it was 0.58 nM. Further, the koff in test [11] was found to be 8.6e-05 s⁻¹; in test [12], 0.00026 s⁻¹. The association rate constant (kon) in [11] was determined as 5.1e+06 M⁻¹ s⁻¹; in [12], 390000 M⁻¹ s⁻¹.

B13: PascoH-474 (bispecific antibody, human IgG1, kappa)
heavy: not shown
light: DIVLTQSPSSLSASVGDRVTITCKASQSVDYDGDSYMNWYQQKPGKAPKLLIYAASNLESGIPSRFSGSGSGTDFTFTISSLQPEDIATYYCQQSNEDPPTFGQGTKVEIKRTVAAPSVFIFPPSDEQLKSGTASVVCLLNNFYPREAKVQWKVDNALQSGNSQESVTEQDSKDSTYSLSSTLTLSKADYEKHKVYACEVTHQGLSSPVTKSFNRGEC
notes: also called BPC1000
For B13, the Stoichiometry in test [5] is 1.8; in [6], 1.9. The equilibrium dissociation constant (Kd) was determined as 0.0439 nM in test [13]; 18.6 nM in test [14]; 0.02 nM in [11]; 0.84 nM in test [12]; 0.037 nM in [9]; 0.71 nM in [10]. Also, the koff in test [13] was found to be 8.14e-05 s⁻¹; in test [14] it was 0.0109 s⁻¹; in test [11] it was 9.4e-05 s⁻¹; in [12], 0.00031 s⁻¹. For the same molecule, the kon in test [13] worked out at 1.85e+06 M⁻¹ s⁻¹; in test [14], 586000 M⁻¹ s⁻¹; in test [11] it was 4.8e+06 M⁻¹ s⁻¹; in test [12], 360000 M⁻¹ s⁻¹.

The IC50 is the concentration at which inhibition is half-maximal. As a reminder, the Kd is the equilibrium constant for the complex coming apart. By koff is commonly meant the first-order rate constant of dissociation. Usually kon stands for a measure of how fast the partners come together.
